In paper PMC5961032 one finds EC50 of the stimulation of eIF2α^P (2 μM) dephosphorylation by PP1α (24 nM) with G-actin (400 nM), MBP-PPP1R15A^325–636 0–100 nM, 20 min and EC50 of the stimulation of eIF2α^P (2 μM) dephosphorylation by PP1^N (20 nM) with G-actin (400 nM), PPP1R15A^325–636-MBP 0–100 nM, 30 min data, which are given here for two substances.

In test [1] the target is PP1α (7–330) (UniProt P62136).
In test [2] the target is native catalytic subunit of PP1 from rabbit skeletal muscle (PP1^N) (rabbit) (UniProt P62139).
Chain of UniProt P62139 (P62139 whole entry): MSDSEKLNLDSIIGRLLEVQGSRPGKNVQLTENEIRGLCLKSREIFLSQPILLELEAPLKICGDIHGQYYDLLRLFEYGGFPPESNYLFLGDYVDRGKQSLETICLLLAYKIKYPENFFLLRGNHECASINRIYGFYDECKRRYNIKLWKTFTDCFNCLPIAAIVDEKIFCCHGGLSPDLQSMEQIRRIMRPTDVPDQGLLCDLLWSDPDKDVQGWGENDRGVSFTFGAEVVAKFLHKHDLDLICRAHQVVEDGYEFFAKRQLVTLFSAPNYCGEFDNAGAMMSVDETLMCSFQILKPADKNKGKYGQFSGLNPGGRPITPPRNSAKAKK

Chain of PPP1R15A^325–636-MBP (O75807 325-636): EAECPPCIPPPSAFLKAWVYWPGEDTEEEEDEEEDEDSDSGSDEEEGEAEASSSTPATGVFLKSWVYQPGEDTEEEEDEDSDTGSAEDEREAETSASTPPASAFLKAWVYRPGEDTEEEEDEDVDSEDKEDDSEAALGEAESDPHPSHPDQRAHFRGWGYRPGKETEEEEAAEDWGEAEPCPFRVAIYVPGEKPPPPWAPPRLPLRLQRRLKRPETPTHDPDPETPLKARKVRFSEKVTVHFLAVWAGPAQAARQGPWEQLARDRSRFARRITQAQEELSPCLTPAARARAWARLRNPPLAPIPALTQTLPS
Chain of MBP-PPP1R15A^325–636 (O75807 325-636): as above
Chain of UniProt P62136 (P62136 7-330): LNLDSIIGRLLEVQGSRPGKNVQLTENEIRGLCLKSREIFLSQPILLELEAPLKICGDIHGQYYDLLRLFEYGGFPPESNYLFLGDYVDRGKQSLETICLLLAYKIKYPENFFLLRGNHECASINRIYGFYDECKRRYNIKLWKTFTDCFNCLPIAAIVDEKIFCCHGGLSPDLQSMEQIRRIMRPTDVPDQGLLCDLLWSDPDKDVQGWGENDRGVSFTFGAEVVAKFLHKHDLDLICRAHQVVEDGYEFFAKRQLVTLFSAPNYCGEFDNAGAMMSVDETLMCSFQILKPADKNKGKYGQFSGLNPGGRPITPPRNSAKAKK

The substance “MBP-PPP1R15A^325–636 (from UniProt O75807 325-636) (domain or fragment)” registered an EC50 of the stimulation of eIF2α^P (2 μM) dephosphorylation by PP1α (24 nM) with G-actin (400 nM), MBP-PPP1R15A^325–636 0–100 nM, 20 min at 30 °C in test [1] of 6 nM.
For “PPP1R15A^325–636-MBP (from UniProt O75807 325-636) (domain or fragment)”, the EC50 of the stimulation of eIF2α^P (2 μM) dephosphorylation by PP1^N (20 nM) with G-actin (400 nM), PPP1R15A^325–636-MBP 0–100 nM, 30 min at 30 °C in test [2] came out at 58 nM.
